Assay results reported in patent US20150218261A1 (AbbVie / Abbott, published 2015).

Tests used:
[1] = biological target: T1, platelet factor 4 (PF-4) in Cynomolgus monkey plasma (Cynomolgus monkey (Macaca fascicularis), UniProt A0A7N9D5L6 32-101); test: sandwich ELISA (E1), cynomolgus plasma; AUC of reference anti-HPF4 antibody (ab49735) against AUC of this antibody
T1 construct: Endogenous protein of the plasma; detected with rabbit polyclonal anti-HPF4 (Abcam ab9561); also called CXCL4
T1 sequence: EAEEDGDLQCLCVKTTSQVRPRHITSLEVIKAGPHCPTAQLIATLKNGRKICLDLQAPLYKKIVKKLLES

[2] = biological target: T2, human platelet factor 4 (PF-4) in HPF4-spiked human plasma (human); test: sandwich ELISA (E2), HPF4-spiked human plasma; AUC of reference anti-HPF4 antibody (ab49735) against AUC of this antibody
T2 construct: Human EDTA plasma pool (4 donors) spiked with 10 ng/ml human PF4 (Molecular Innovation cat. no. HPF4); also called human PF4; CXCL4

[3] = biological target: T1, platelet factor 4 (PF-4) in Cynomolgus …; test: sandwich-ELISA: antibody coated on the plate, dilution series of cynomolgus plasma, bound PF-4 detected (OD450nm)
[4] = biological target: T1, platelet factor 4 (PF-4) in Cynomolgus …; test: aligned sandwich ELISA (E3), cynomolgus plasma; AUC of reference anti-HPF4 antibody (ab49735) against AUC of this antibody
Procedure: (§1) Then 10 μl 10 mg/ml trypsin inhibitor in H₂O were added. After incubation for 10 min at room temperature the sample was filtrated through a 0.22 μm filter (Millipore cat. no. SLGS0250S).
(§2) Procedure used: [0437] 1. 100 μl of the respective aligning antibody solution (anti-human IgG for experiment E3; anti-murine IgG for reference experiment R3) per well were applied and incubated overnight at 4° C. [0438] 2. The antibody solution was discarded and the wells were washed three times with 250 μl PB ST-buffer. [0439] 3. 265 μl blocking solution per well were added and incubated 2 h at room temperature. [0440] 4. The blocking solution was discarded and the wells were washed three times with 250 μl PBST buffer. [0441] 5. After preparation of the dilution series of each binding antibody, 100 μl per well of these antibody dilutions were applied to the plate. The plate was incubated 2 h at room temperature. [0442] 6. […] Plate colour was monitored during development (5-15 min at ambient temperature) and the reaction was terminated by adding 50 μl/well of stop solution when an appropriate colour had developed. […] The absorbance was read at 450 nm.
(§3) Data analysis was performed as described for sandwich-ELISA with cynomolgus plasma in Example 3.1, except that not plasma dilution factors but the amounts of antibody (expressed in ng/ml) were used as X-values and thus concentration effect curves were calculated.

[5] = biological target: T2, human platelet factor 4 (PF-4) in …; test: aligned sandwich ELISA (E4), HPF4-spiked human plasma; AUC of reference anti-HPF4 antibody (ab49735) against AUC of this antibody
[6] = biological target: T1, platelet factor 4 (PF-4) in Cynomolgus …; test: aligned sandwich ELISA (E3), cynomolgus plasma; AUC was 0, ratio could not be calculated
Procedure: as §1, §2, §3

Aβ(20-42) globulomer [7] = biological target: T3, Aβ(20-42) globulomer (human); test: SPR (BIAcore); antibody captured on goat anti-human IgG Fc, soluble globulomer injected; lot #1759119, average
T3 construct: Range counted on the Aβ peptide; also called amyloid-beta (20-42) globulomer
T3 peptide: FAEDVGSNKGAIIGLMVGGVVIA
Procedure: (§4) Interaction of the purified humanized antibodies 4D10hum#1 and 4D10hum#2 to Aβ(20-42) globulomer was evaluated by surface plasmon resonance (SPR) analysis using a BIAcore device. Goat anti-human IgG Fc (10,000 RU) was directly immobilized on a CMS sensor chip by an amine coupling procedure according to the manufacturer's instructions (BIAcore). The respective 4D10hum antibody was captured on the goat anti-human IgG Fc coated surface of the chip by injecting 5.0 μl of a 1 μg/ml 4D10hum antibody solution at a flow rate of 10-15 μl/min. Interaction of soluble Aβ(20-42) globulomer with the 4D10hum antibody on the sensor chip was examined by injecting globulomer solutions (concentration range: 20-0.3125 nM) at a flow rate of 50 μl/min. The association rate was monitored for 5.0 min and the dissociation rate was monitored for 10 min. From the resulting sensorgrams the association rate constant (kₒₙ), dissociation rate constant (koff) and equilibrium dissociation constant (KD) were determined using to the manufacturer's software and instructions. The kinetic and equilibrium constants determined for three different preparations of 4D10hum#1 and two different preparations of 4D10hum#2 are summarized in table 7. […] The heavy chains of antibodies #4 and #5 are as in 4D10hum#1 or #2, and the light chains are chimeras of m4D10 VL (SEQ ID NO:24) and the human Ig kappa constant region (SEQ ID NO:27). The light chains of antibody #3 are as in 4D10hum#1 and #2, and the heavy chains are chimeras of m4D10 VH (SEQ ID NO23) and the human Ig gamma-1 constant region (SEQ ID NO:25).

Aβ(20-42) globulomer [8] = biological target: T3, Aβ(20-42) globulomer; test: SPR (BIAcore); antibody captured on goat anti-human IgG Fc, soluble globulomer injected; lot #1773659, average
Procedure: as §4

Aβ(20-42) globulomer [9] = biological target: T3, Aβ(20-42) globulomer; test: SPR (BIAcore); antibody captured on goat anti-human IgG Fc, soluble globulomer injected; lot #1759119, experiment 1
Procedure: as §4

Aβ(20-42) globulomer [10] = biological target: T3, Aβ(20-42) globulomer; test: SPR (BIAcore); antibody captured on goat anti-human IgG Fc, soluble globulomer injected; lot #1759119, experiment 2
Procedure: as §4

Aβ(20-42) globulomer [11] = biological target: T3, Aβ(20-42) globulomer; test: SPR (BIAcore); antibody captured on goat anti-human IgG Fc, soluble globulomer injected; lot #1773659, experiment 1
Procedure: as §4

Aβ(20-42) globulomer [12] = biological target: T3, Aβ(20-42) globulomer; test: SPR (BIAcore); antibody captured on goat anti-human IgG Fc, soluble globulomer injected; lot #1773659, experiment 2
Procedure: as §4

Aβ(20-42) globulomer [13] = biological target: T3, Aβ(20-42) globulomer; test: SPR (BIAcore); antibody captured on goat anti-human IgG Fc, soluble globulomer injected; average
Procedure: as §4

Aβ(20-42) globulomer [14] = biological target: T3, Aβ(20-42) globulomer; test: SPR (BIAcore); antibody captured on goat anti-human IgG Fc, soluble globulomer injected; experiment 1
Procedure: as §4

Aβ(20-42) globulomer [15] = biological target: T3, Aβ(20-42) globulomer; test: SPR (BIAcore); antibody captured on goat anti-human IgG Fc, soluble globulomer injected; experiment 2
Procedure: as §4

[16] = biological target: T2, human platelet factor 4 (PF-4) in …; test: sandwich ELISA (R2), HPF4-spiked human plasma; AUC of reference anti-HPF4 antibody (ab49735) against AUC of this antibody
[17] = biological target: T2, human platelet factor 4 (PF-4) in …; test: aligned sandwich ELISA (R4), HPF4-spiked human plasma; AUC of reference anti-HPF4 antibody (ab49735) against AUC of this antibody

B1: humanized monoclonal anti-Aβ antibody 4D10hum#1 (antibody, human IgG1, kappa, V domains shown)
VH: EVQLVESGGGLVQPGGSLRLSCAVSGFTLSSYGVHWVRQAPGKGLEWLGVIWRGGRIDYNAAFMSRLTISKDNSKSTVYLQMNSLRAEDTAVYYCARNSDVWGQGTTVTVSS
VL: DVVMTQTPLSLPVTPGQPASISCKSSQSLLDIDGKTYLNWLLQKPGQSPQRLIYLVSKLDSGVPDRFSGSGSGTDFTLKISRVEAEDVGVYYCWQGTHFPYTFGQGTKLEIKR
notes: also called mAb 4D10hum#1; mAb 4D10 hum#1
In the case of B1, the “Ratio HPF4/aAβ antibody” value [1] is reported as 64, the “Ratio HPF4/aAβ antibody” value [2] is reported as 30 and the binding result [3] is reported as “no binding (tested: plasma dilution 1:3.16)”. For the same binder, the “Ratio HPF4/aAβ antibody” value [4] was 158 and the “Ratio HPF4/aAβ antibody” value [5] was 23.

B2: humanized monoclonal anti-Aβ antibody 4D10hum#2 (antibody, human IgG1, kappa, V domains shown)
VH: EVQLQESGPGLVKPSETLSLTCTVSGFSLSSYGVHWVRQPPGKGLEWLGVIWRGGRIDYNAAFMSRLTISKDTSKSQVSLKLSSVTAADTAVYYCARNSDVWGQGTTVTVSS
VL: B1 VL
notes: also called mAb 4D10hum#2; mAb 4D10 hum#2
With B2 the “Ratio HPF4/aAβ antibody” value [6] was greater than 158, the Kd (Aβ(20-42) globulomer [7]) was 532 pM and the koff (Aβ(20-42) globulomer [7]) was 0.000301 s⁻¹. It also gave a kon (Aβ(20-42) globulomer [7]) of 570000 M⁻¹ s⁻¹, a Kd (Aβ(20-42) globulomer [8]) of 482 pM and a koff (Aβ(20-42) globulomer [8]) of 0.000283 s⁻¹. For the same binder, the kon (Aβ(20-42) globulomer [8]) was 597000 M⁻¹ s⁻¹, the “Ratio HPF4/aAβ antibody” value [1] was 36 and the Kd (Aβ(20-42) globulomer [9]) was 454 pM. For the same binder, the koff (Aβ(20-42) globulomer [9]) was 0.00027 s⁻¹, the kon (Aβ(20-42) globulomer [9]) was 593000 M⁻¹ s⁻¹ and the Kd (Aβ(20-42) globulomer [10]) was 609 pM. For the same binder, the koff (Aβ(20-42) globulomer [10]) was 0.000332 s⁻¹, the kon (Aβ(20-42) globulomer [10]) was 546000 M⁻¹ s⁻¹ and the Kd (Aβ(20-42) globulomer [11]) was 529 pM. It also gave a koff (Aβ(20-42) globulomer [11]) of 0.000268 s⁻¹, a kon (Aβ(20-42) globulomer [11]) of 507000 M⁻¹ s⁻¹ and a Kd (Aβ(20-42) globulomer [12]) of 435 pM. The koff (Aβ(20-42) globulomer [12]) was 0.000298 s⁻¹, the kon (Aβ(20-42) globulomer [12]) was 686000 M⁻¹ s⁻¹ and the “Ratio HPF4/aAβ antibody” value [2] was 17. The binding result [3] was “no binding (tested: plasma dilution 1:3.16)” and the “Ratio HPF4/aAβ antibody” value [5] was 75.

B3: 4D10#3 (chimeric heavy chain; light chain as 4D10hum#1 and #2) (antibody, human IgG1, kappa, V domains shown)
VH: QVQLKQSGPSLIQPSQSLSITCTVSGFSLTSYGVHWVRQSPGKGLEWLGVIWRGGRIDYNAAFMSRLSITKDNSKSQVFFKMNSLQADDTAIYYCARNSDVWGTGTTVTVSS
VL: B1 VL
notes: Heavy chain is a chimera of m4D10 VH and the human Ig gamma-1 constant region; light chain is the humanized one; also called antibody #3
In the case of B3, the Kd (Aβ(20-42) globulomer [13]) is reported as 597 pM, the koff (Aβ(20-42) globulomer [13]) is reported as 0.000333 s⁻¹ and the kon (Aβ(20-42) globulomer [13]) is reported as 563000 M⁻¹ s⁻¹. It also gave a Kd (Aβ(20-42) globulomer [14]) of 525 pM, a koff (Aβ(20-42) globulomer [14]) of 0.000317 s⁻¹ and a kon (Aβ(20-42) globulomer [14]) of 603000 M⁻¹ s⁻¹. It also gave a Kd (Aβ(20-42) globulomer [15]) of 669 pM, a koff (Aβ(20-42) globulomer [15]) of 0.000349 s⁻¹ and a kon (Aβ(20-42) globulomer [15]) of 522000 M⁻¹ s⁻¹.

B4: 4D10#5 (heavy chain as 4D10hum#2; chimeric light chain) (antibody, human IgG1, kappa, V domains shown)
VH: B2 VH
VL: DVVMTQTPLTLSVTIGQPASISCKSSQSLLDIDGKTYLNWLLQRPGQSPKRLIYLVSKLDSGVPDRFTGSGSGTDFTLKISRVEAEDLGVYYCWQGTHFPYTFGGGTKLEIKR
notes: Light chain is a chimera of m4D10 VL and the human Ig kappa constant region; also called antibody #5
In the case of B4, the Kd (Aβ(20-42) globulomer [13]) is reported as 575 pM, the koff (Aβ(20-42) globulomer [13]) is reported as 0.000277 s⁻¹ and the kon (Aβ(20-42) globulomer [13]) is reported as 483000 M⁻¹ s⁻¹. It also gave a Kd (Aβ(20-42) globulomer [14]) of 530 pM, a koff (Aβ(20-42) globulomer [14]) of 0.000262 s⁻¹ and a kon (Aβ(20-42) globulomer [14]) of 494000 M⁻¹ s⁻¹. For the same binder, the Kd (Aβ(20-42) globulomer [15]) was 619 pM, the koff (Aβ(20-42) globulomer [15]) was 0.000292 s⁻¹ and the kon (Aβ(20-42) globulomer [15]) was 472000 M⁻¹ s⁻¹.

B5: 4D10#4 (heavy chain as 4D10hum#1; chimeric light chain) (antibody, human IgG1, kappa, V domains shown)
VH: B1 VH
VL: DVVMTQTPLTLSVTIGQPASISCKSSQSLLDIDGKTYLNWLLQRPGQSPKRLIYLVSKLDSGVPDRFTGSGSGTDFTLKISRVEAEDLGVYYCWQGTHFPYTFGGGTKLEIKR
notes: Light chain is a chimera of m4D10 VL and the human Ig kappa constant region; also called antibody #4
Work on B5 yielded a Kd (Aβ(20-42) globulomer [13]) of 646 pM, a koff (Aβ(20-42) globulomer [13]) of 0.000313 s⁻¹ and a kon (Aβ(20-42) globulomer [13]) of 484000 M⁻¹ s⁻¹. For the same binder, the Kd (Aβ(20-42) globulomer [14]) was 635 pM, the koff (Aβ(20-42) globulomer [14]) was 0.000294 s⁻¹ and the kon (Aβ(20-42) globulomer [14]) was 462000 M⁻¹ s⁻¹. It also gave a Kd (Aβ(20-42) globulomer [15]) of 657 pM, a koff (Aβ(20-42) globulomer [15]) of 0.000332 s⁻¹ and a kon (Aβ(20-42) globulomer [15]) of 506000 M⁻¹ s⁻¹.

B6: anti-Aβ monoclonal antibody clone m4D10 (antibody, V domains shown)
VH: B3 VH
VL: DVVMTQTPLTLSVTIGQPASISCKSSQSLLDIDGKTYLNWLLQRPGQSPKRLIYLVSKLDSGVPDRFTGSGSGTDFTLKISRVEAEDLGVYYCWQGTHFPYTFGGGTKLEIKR
notes: Murine monoclonal antibody; also called mAb m4D10; murine 4D10
In the case of B6, the “Ratio HPF4/aAβ antibody” value [16] is reported as 21 and the “Ratio HPF4/aAβ antibody” value [17] is reported as 27.
